Values of other authors in publication PMC5466068.

Molecular target: Cys32 (UniProt position 32, FSATWCGPCKM)
Experiment: NMR
Conditions: not stated (a free thiol at the catalytic Cys implies the reduced form)

Q: Which pKa does the source give for Thioredoxin-1 (Thrx-1) (Homo sapiens) here?
A: Its pKa is roughly 6.3.
